Measurements reported in patent US20100196398A1.

Molecular target: human CD105 (human) (UniProt P17813)
Experiment: FACS titration of FITC-labeled SN6 on HUVEC cells

human CD105 (human), sequence (P17813 26-658): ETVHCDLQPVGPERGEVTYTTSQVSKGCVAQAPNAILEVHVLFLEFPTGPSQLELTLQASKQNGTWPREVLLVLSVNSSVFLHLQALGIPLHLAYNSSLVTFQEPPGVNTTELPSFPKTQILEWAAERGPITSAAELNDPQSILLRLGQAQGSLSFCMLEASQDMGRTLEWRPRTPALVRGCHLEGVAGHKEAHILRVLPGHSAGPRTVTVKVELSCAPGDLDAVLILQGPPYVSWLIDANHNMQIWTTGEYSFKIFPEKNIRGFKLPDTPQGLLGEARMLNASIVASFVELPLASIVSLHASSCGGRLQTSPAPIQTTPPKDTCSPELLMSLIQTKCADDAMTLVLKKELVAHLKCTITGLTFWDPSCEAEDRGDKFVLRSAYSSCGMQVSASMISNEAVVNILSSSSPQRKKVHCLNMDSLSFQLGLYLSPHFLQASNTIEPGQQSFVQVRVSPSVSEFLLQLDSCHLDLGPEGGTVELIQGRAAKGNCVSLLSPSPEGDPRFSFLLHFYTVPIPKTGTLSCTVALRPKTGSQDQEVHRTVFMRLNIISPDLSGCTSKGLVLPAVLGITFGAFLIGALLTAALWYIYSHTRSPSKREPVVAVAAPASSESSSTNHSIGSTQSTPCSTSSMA

In the case of SN6 antibody (Abcam), the EC50 is reported as 2 mg/L.
